Experimental data as given in patent US20190023785A1 (SHANGHAI JIAOTONG UNIVERSITY, published 2019).

B1: FnAb12 single chain antibody (scFv)
scFv: DIQLTQSPSSLSASVGDRVTLTCQATQDIDNNLNWYQQKPGKAPKLLIYDASNLETGVPSRFSGSGSGTDFTFTISDLQPEDVATYYCQQYYNLPLTFGGGTKVDIKRSRGGGGSGGGGSGGGGSLEMAEVQLVQSGAEVKKPGASVKVSCKASGYTFTSYDINWVRQATGQGLEWMGWMNPNSGNTGYAQKFQGRVTMTRNTSISTAYMELSSLRSEDTAVYYCARGVDLGDGWGQGTLVTVSS
notes: Single chain antibody from a phage library

Columns and labels:
[1] = molecular target: GLP-1R expressed on CRE-Luc/GLP-1R HEK293 cells
hFcRn&b2M protein = molecular target: T1, hFcRn&b2M protein (human, UniProt P61769 21-119, limits assumed); experiment: binding affinity to hFcRn & b2M at pH 6.0, method not named; pH 6.0; soluble hFcRn & b2M as ligand
T1 construct: also called hFcRn&β2M; human FcRn protein
T1 sequence (chain, as listed by the source limits assumed, chain 1 of 2): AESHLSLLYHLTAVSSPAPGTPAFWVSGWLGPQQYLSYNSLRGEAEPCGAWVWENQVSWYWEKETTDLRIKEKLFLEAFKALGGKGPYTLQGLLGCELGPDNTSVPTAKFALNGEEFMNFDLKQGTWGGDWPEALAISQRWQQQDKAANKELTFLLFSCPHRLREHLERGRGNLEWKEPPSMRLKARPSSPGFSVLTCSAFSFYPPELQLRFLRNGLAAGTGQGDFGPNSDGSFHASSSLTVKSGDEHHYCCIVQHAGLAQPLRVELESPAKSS
T1 sequence (P61769 21-119 limits assumed, chain 2 of 2): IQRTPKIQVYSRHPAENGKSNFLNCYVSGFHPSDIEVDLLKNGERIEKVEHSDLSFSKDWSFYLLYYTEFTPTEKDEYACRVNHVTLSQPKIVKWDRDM

Molecule	EC50, relative luciferase activity in CRE-Luc/GLP-1R HEK293 reporter cells [1] [nM]	Kd (hFcRn&b2M protein) [nM]
GLP-1 (peptide)	3.89	
B1		15
